Data as given in US6235873.

System: Stat3-C (A662C/N664C Stat3) (Mus musculus)
Experiment: cell_activity
Settings: approximately 10-fold, no induced tyrosine phosphorylation

Which activity (fold over background) does the source give for 4x m67 luciferase reporter here?
Its activity (fold over background) is 10.
